Reference: article PMC11497058 (2024)

Experiments:
[1] = molecular target: T1, Recombinant His‐tagged GRB2 protein (human, UniProt P62993 1-217); assay: BLI
[2] = molecular target: T1, Recombinant His‐tagged GRB2 protein; assay: BLI; GRB2 preincubated with Rg3

T1 sequence (P62993 whole entry): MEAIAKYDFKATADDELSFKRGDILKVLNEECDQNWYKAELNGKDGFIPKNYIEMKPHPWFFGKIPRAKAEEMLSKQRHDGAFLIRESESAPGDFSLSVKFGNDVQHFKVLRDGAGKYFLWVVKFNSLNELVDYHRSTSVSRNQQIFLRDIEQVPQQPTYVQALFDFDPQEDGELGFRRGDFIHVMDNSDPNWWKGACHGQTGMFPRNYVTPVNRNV

B1: Recombinant His‐tagged TRKA protein (receptor)
chain: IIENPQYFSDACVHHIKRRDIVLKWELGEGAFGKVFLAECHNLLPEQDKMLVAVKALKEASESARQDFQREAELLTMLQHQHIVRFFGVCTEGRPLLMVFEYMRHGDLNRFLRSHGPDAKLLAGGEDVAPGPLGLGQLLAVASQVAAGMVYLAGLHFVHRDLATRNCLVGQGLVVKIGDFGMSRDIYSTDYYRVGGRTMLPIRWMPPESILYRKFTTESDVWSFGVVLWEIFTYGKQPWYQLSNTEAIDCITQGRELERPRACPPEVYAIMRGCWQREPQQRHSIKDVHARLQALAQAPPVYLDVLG
modifications: biotin (EZ‐Link NHS‐PEG12‐Biotin)
B1 was tested, and the Kd [1] was 74.7 nM and the Kd [2] was 14 nM.
